Assay results as given in patent publication CN111138528A.

Target: BDBV GP (BDBV)
Experiment: ELISA, GP coated at 1 μg/mL, 5A8 from 10 μg/mL in 1:3 dilutions

B1: 单克隆抗体5A8 (antibody, V domains shown)
VH: EVQLLESGGGLVKPGGSLRLSCAASGFTFSDYYMNWIRQAPGKGLEWVSYISSSGKTIYYADSVKGRFTISRDNAKKSLYLQMNSLRAEDTAVYYCARDREIVISTTILLGSDHYAMDVWGQGTTVTVSS
VL: DIQMTQSPFTLSASVGDRVTITCRASQSINSYLNWYQQKPGKAPKLLIYSASSLQSGVPSRFSGSGSGTDFTLTISSLQPEDFAIYYCQQTYRTPYTFGQGTKVEIKT
B1 was tested, and the EC50 was 0.126 µg/mL and the fold weaker binding than to EBOV GP was 10 fold.
